Experimental data reported in the domain aggregation screens of Martell et al. (2025).

Assay: soluble fraction after stress (log2 fold change); higher = more stays soluble; pooled small domains, quantitative proteomics
Details: stress: 50 degC
Summary of the method: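 After stress at 50°C, the amount of each protein still soluble was measured. This was done on pooled custom libraries of small protein domains, using high-throughput quantitative proteomics. The figure given is a base-two log fold change and stands for aggregation propensity, with higher values meaning more protein stays in solution.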

Sequence | soluble fraction (log2)
HMQPDPAFVAWVDANPWYKENRTLRALVHDYAEEVKRQEPALIGTAFLDRVKQLVQSEHPELFD | -0.0926
HMQPETIEDATNLYLEAARATLQLIEQNNVIARDVKRLLEHLDNDMARIETLLAEMLSRRDHWLRHIH | -0.12
HMQPIQPNQAKYLDGLSSKYKGKGNHSQAAQLTALRDALNAGDHAKAREIYDKLDYEPQAEAAH | 0.351
HMQPNVTRERILAAAMTVFAQKGWQKTSLDEVAAAAGMTKGAIYWHFRNKNDLFFALLDARLQRD | -1.97
HMQQAVTMQKPGRLLRNADGNGGAVRDLDVGMMLYPTGNRSELMWEVDDELGNRGWVNSTLFGLS | -0.109
HMQQDGSSSLGENMLNQELQARGVVPSEIPQEVWERVIQEAGKKSKREIYADIGLGRSLAAGFAQRLAA | 0.261
HMQQDVLKLKSGGNYKGEYINIESAYVLFKPEGGNATQRIKVNEIQMLKLADGTEVIFGGRVK | 0.0478
HMQQEPNFYIVDGNTNQIVDRYYAPDSNVAHQYLGQWRQQHDPQETGNYRYGRLSSETEERYRNLAA | 0.236
HMQQFGANVRLIRKARQMSIKQLSELSGVSQTMISEVERGLKIPTIDVAGKIAAALGIDLTNLMG | -0.465
HMQQIQILPDGKIKLPDLSGTNMREAIEILHKGGLRMKPYGSGNAYQQKPAAGETVASGTTVEVLSL | 0.0457
HMQQLAEQIPTDRPYISIAEAVVLFGISRDTIYRQIRKGNIPAVNLGERLTRISRIHIEAMFPKV | -0.563
HMQQNYREMHKVKKGETLFGIARRYEITVDQLIKANPDMNAVGYELKKGDYIFIPYPDGQKP | -0.13
HMQRAEQLPAELAAVFRAETEAWGFFERQPPGYQRVAIHWVASAKQEATRLRRLAKLIEESAAGRR | -1.7
HMQRDTIAISAIPTAIKTYLSSTYPTDTLVHAFVNKDQSIVVISKNIDFYATSFSTANAFIKRIQLPA | -1.03
HMQRFIHITVSDVHQATRLLEEEMQLTNYSVAENNAIKIFEFTYEPQEINHLFGKNGIEVSSLFIGS | -0.134
HMQRNLILKLDTDQPEIYKKLESIFVEINGLLVPFFIEKIIWSKQDSLNILFKNSSEALVEQLIGKNVFLP | 0.0989
HMQRSVNYSELHEIKERVFDALYSSPMSMPDLLAWLKGDEEHTISVIRLMQDNGDIEMGEDGRLAVV | -0.275
HMQSISLEEAKSAALDDAQLGIDEVEFLKTERNTDGDTSYYDIQFLVNGTIYKYQINTETGAILHVDYEA | -0.052
HMQSITAGDKVRVKNYTVSGGKKRGKVYGGAGTFVVYYEKYDVISVTGDRVVIGIGKAVTAAVHIDDLEK | -1.15
HMQSKSEINELPKSIHMAFSPKNFELFIDNLKINEIDFSNWKGELNTIQERVDGQRQIWIQDPQGYWIEIN | -0.018
HMQSLIVPVPKPEDDPVYKDGIKQDPVEVVSIWLGRDYLNMILNLKVSTGKGHTFGIVEDVS | 0.0321
HMQSNDTAEIEAVVKEIMAANERVVNDYRSGNTKVVSFFVGQVMKATKGKANPKVVNEVLAKLLK | 0.0929
HMQSVPELDQQFKIAIENNDFIKLAQLKEQGYHPSKEVMQSLSNTTPNNTIIAVQKIFGLKA | 0.231
HMQSVSANSVQKQLADIIDGEDKTHPLSDRELTEKLVAQGVQISRRTVAKYREAMGIPGASGRKQ | 0.072
HMQTAAANPSPESILQAREAAGLSQSEAGALIYSGLRSWQHWEWGTRRMHPGLFELFLKKTGQI | -1.7
HMQTKMVYSDLVNSIKSEQVSSMLVSGNTVTVTLTNGDKAKVKIPSLDTLQADVGKEMNDQMDKGTLKQE | 0.181

Sequence | soluble fraction (log2)
HMQTKNYVYFNNTENWSTVNVYVWSSKDSTYMSWPGKAMESIGNNTYRFELPNGAEYAIFNNGSAQTVD | -0.137
HMQTKSDMVYHRVREDIVNGVFAPGERLLISAVAKQYGVSEIPVREAFRVLSQEGFLKTRPNSGFVVS | 0.0933
HMQTMTAGERREAILRELEQAQGPVSASALAKRFHVSRQAVVGDVAMLRALNSPIAATPRGYVLTR | -0.0845
HMQTMTDDQVMQYVISQQEKGATQQDIVSKLLQKGVTVDQMRRIRKKYEAQQSQPGALDLTGSS | 0.209
HMQTNEAIINQAVQAAEAQNITTRSQAVDALKANGMTEAQARQLAVQRGISYDQLINELFPME | -0.0275
HMQTPVTVGDTMPNLIGTPKRLLLELLNRTDITVKLTGDGYVTAQSPAAGTPIAKGMIIELSL | -0.296
HMQTQVEVLVKYVLEDGTVYKEDKVSADIGAILDSGDLPMLSNDMKFIDDFLFYEVKESDNVIERKVAKLV | 0.114
HMQTQYIVDTKTTLLVRTGPGKSNSQFGRLKNGETINVYAIKNGWAEISYNGKTGYVSEQYIKLA | -3.12
HMQTTDTGAIETIVDELMAANPDKVEAYRGGKTGLQGFFMGQVMKQLGGQGNPKVISAIVTEKLE | ≥ 0.62
HMQTTPAGHELLIRYFANGNIRERGMMKDGKRNGIWIFYDESGMEIRKTKYKMGKIISDYDLN | -1.07
HMQTTQQLIRNLRLKQAATLLADKRHSITEVATLTGFTHPTYFATAFREMFGVSPSEYMEQHI | -0.86
HMQTYNQLKRGMTEWIQAGQKQKAYELFAGVAGQLSLSSAAGKKQYNELVTILNRAGFGIPLE | -0.428
HMQVEMVLSQEAHEWLLQRGFIPEYGAREMDRVIAAHLKPLLMREILFGTLKAGGKVRVQVENGALKLQP | -1.44
HMQVLSESDVEDIKAISGGDKAYDNLMEWAGSKLSKQDAKDYDDVLATGNKTAITFAVKALMAQYENAN | -0.299
HMQVPFGFQRNPSTGTLEEKAEEQLIINQVLSLKNSGIGVSEISKRLGELSVSRIYRIINTAKKNAS | -0.366
HMQVSDANQLTDVVKSIIKQYPVEVEKYKSGKKALFGFFMGKVMENLKGKSNPKILKNVLTEILD | 0.108
HMQVSDTNTLEQFAKEVIEANPKAVEDYHQNPLAIGFLVGQLMKVSKGSANPQTGKEILEKLL | 0.178
HMQVSDVTTIRALVEEVLSSSPQQLAQYRAGKLSLKGYFVGQVMKKGKGQLNAAAVNNLLDEIL | -0.185
HMQVSEQVQRLLDALENDTLTTKELMDRLGLKHRPTFRKNYLLPSMKLGLVEMTIPDKPNSSRQKYRRRQ | -0.65
HMQVTEVDYGTFMKMVEEKNVGEVEVGNSMIVFTDKDGKAIYKTGAMNDPNLTERLYNAGASFTKE | 0.0396
HMQVTGLTAENAHRVTMIREKGTDHPPVPFHFRKEHHGTGNYVHLYGNPEDRNELHSRDFKDWEAVAFK | 0.25
HMQVVDWSQVDKEDYLLATKRRAVSTGELKFLLLNNLTYDLTQTRFFKGMDASYYYEGYNLYQTGE | 0.122
HMQWGKVRRLPSGRYQASYVHKGTRYTAPETYTVQGRAHGWIESERRLIVTDTWTPPDTRPS | -1.78
HMQWLDSIRSRLRVGQTISYFEPRENASSSGLIIELRRKRVLVLEIATQKRWLIEYAAINVDG | -0.373
HMQWQPSEEAMQRLEQHGIPRAFSFSQLDAFVLQGQEQGSNRNDWNTRFFRFIKNQWVYAQN | -1.62
HMQYDSYTVEEPAKLLDWLLAHLRQSRTKIKATLQGHGIKVNGKTVTQFDYPLEPGMKIRVSLTK | 0.159

Sequence | soluble fraction (log2)
HMQYKTRVINLSILEVGMVLGRDLINKDGKIIVKKDVAISDFLKDHLIGLSKIKEIEPQIYIKV | -1.08
HMQYSIQVNKLLKAMREDVWYTANEILDLLKLKSKETLRKNYLDPAINNKLIILELPDKPTSRNQRYKI | -1.66
HMQYTQKTMYINDSYVNLRKSASTSSDIIMVVELNTKLTVIGEDGDWYKVKTSSGNAYVLKTLLSNEKKET | -0.108
HMQYTTDEVRERVLSVLNQLLLRWIVREGKDMFNIQANAVEISEGIKGELNTELEKIGLAATGFQIDSV | -0.52
HMRADRLISMLMLLQARGKITAEELAVELGVSQRTIYRDIEALSFAGVPVYAERGPGGGIGLLEPY | -1.7
HMRAEPNSNYSLAIIYKNRYDIAVKKKDAVKEVEYGKMVYEYLNKYVVLSGNKSAKYKKILNYFSSY | -3.04
HMRAFTPSEAQVAHARRVMEAFWQHQREGHGAFALDGKMVDAPIVKAAARVLARAGLQDPNHPIHLA | -0.0227
HMRALPFSFANRHGVLIREISDGVAHAVYRIGSSPLGLAEARRFVGMPLMLTPVAREAFDSLLQQTYEQG | -1.6
HMRAPEIEAARSDLDVGQTVQIVRHLHGNQYEVFYRGAQWQAEAVGSSGANDAQTAVITGKNGNILLIQI | -0.0658
HMRAVPTKLAPFVEVLKAMLEADGHRPKAQRRTAKALHLELISRGYAGGYTRLTDYIRDWRQQQG | -2.34
HMRDANYFINPIHEWQKRYEALRASFVDRLPAQAVAQRFGYTITYIHLLRHQFKSGKIDFSEPVPEG | -4.61
HMRDFTQPQTASIGPRMREALARGTMTVEELREQFRTQEFPHESVRTAFLEELERVAAELGLA | -0.0676
HMRDISTDTSAWTFQDIKRYYDPQDLLTEKQVGQALSLIKGRNLNPLLNEVYIVAYKKKNGGAEFSLIV | -0.28
HMRDPLNTGFRQTLKDIVNSLPKNELYSPGVREEYIYPKIGVTSLGMEASMVLNGLISSRRKNIELKEKN | 0.447
HMRDPVDKDNYLGDWDKNKTYPAGYVMTFGDKNYLALQEVPAGTKPGATDPDPFWVLDTGKTLKD | -0.0888
HMRDQARQFFIDTWAKFQRHDALTPLEEKTAAIIALHPEYHRVLQNPESFITTDWRPESGDINPFMHL | -1.34
HMRDSYEVEGRIASVSPAAGTFVVAGVTVDYTGARFVGGTVAQLAPGVKVEVEGRRLANGTLQAREIEFD | 0.00935
HMRDSYTFEDIEKLKDSYLQDSEKALEKLISIYEDTNQSLAIRTAALDIITDSQDPTFKLALEKIIS | 0.0263
HMRDTAKTLLAMEVVGENNKKNLQAFGIQKGDQNYQTAVVVRLMQKALMEGDTSAIRLIGELTGD | -0.197
HMRDTLSKQLLTEEMVLQFIREMREHDPGIGGEKLHAMYLGRFGRDYEYMVGRDKMEMIIAENNLNVR | -0.736
HMRDYDFGNLLYKLRIESGYTQKDIADMLGVTDKAVSKWENGIAKPTTNNIKLLSTIYNVSVEELLNG | -0.254
HMRDYKTALQEWVQRTPGQPIAYRLVDELGPDHARVFVMEVTVGGQSAGQGRGRTKKEAEQLAARAALEKL | -0.0907
HMREEIESVYKTLAVTEIPYIARGNSARLGSGIQTVYDFYRMEGMQVSKILGRNGSVLWLELHG | 0.126
HMREEMYGLIGFITTSEVTDTFGQMEIKLENEPEMRINVRTNPGESLARGDAAKIISFNNSNGTFLVELTK | -0.474
